Measured values as given in the supplement of paper PMC11246515.
± gives the standard deviation of the averaged measurements.

Test: total protein half-life in vivo (active degradation + dilution); higher = more stable protein
[1] = E. coli NCM3722 delta-clpP delta-lon delta-hslV, growth: N-lim chemostat, doubling time 6 h
[2] = E. coli NCM3722 delta-clpP, growth: N-lim chemostat, doubling time 6 h
[3] = E. coli NCM3722 delta-smpB, growth: N-lim chemostat, doubling time 6 h
[4] = wild type E. coli NCM3722, growth: N-lim chemostat, doubling time 6 h
[5] = wild type E. coli NCM3722, growth: P-lim chemostat, doubling time 12 h
[6] = E. coli NCM3722 delta-hslV, growth: N-lim chemostat, doubling time 6 h
[7] = E. coli NCM3722 delta-lon, growth: N-lim chemostat, doubling time 6 h
[8] = wild type E. coli NCM3722, growth: C-lim chemostat, doubling time 3 h
[9] = wild type E. coli NCM3722, growth: C-lim chemostat, doubling time 6 h
[10] = wild type E. coli NCM3722, growth: C-lim chemostat, doubling time 12 h
[11] = wild type E. coli NCM3722, growth: N-lim chemostat, doubling time 12 h
[12] = wild type E. coli NCM3722, growth: P-lim chemostat, doubling time 6 h

## MSRLSPVNQARWARFRHNRRGYWSLWIFLVLFGLSLCSELIANDKPLLVRYDGSWYFPLLKNYSESDFGGPLASQADYQDPWLKQRLENNGWVLWAPIRFGATSINFATNKPFPSPPSRQNWLGTDANGGDVLARILYGTRISVLFGLMLTLCSSVMGVLAGALQGYYGGKVDLWGQRFIEVWSGMPTLFLIILLSSVVQPNFWWLLAITVLFGWMSLVGVVRAEFLRTRNFDYIRAAQALGVSDRSIILRHMLPNAMVATLTFLPFILCSSITTLTSLDFLGFGLPLGSPSLGELLLQGKNNLQAPWLGITAFLSVAILLSLLIFIGEAVRDAFDPNKAV
[1]
  total protein half-life in vivo: 6 h
[2]
  total protein half-life in vivo: 6.1 h
[3]
  total protein half-life in vivo: 5.43 ± 0.61 h
[4]
  total protein half-life in vivo: 6.44 h
[5]
  total protein half-life in vivo: 13.2 h

## MFQKVDAYAGDPILTLMERFKEDPRSDKVNLSIGLYYNEDGIIPQLQAVAEAEARLNAQPHGASLYLPMEGLNCYRHAIAPLLFGADHPVLKQQRVATIQTLGGSGALKVGADFLKRYFPESGVWVSDPTWENHVAIFAGAGFEVSTYPWYDEATNGVRFNDLLATLKTLPARSIVLLHPCCHNPTGADLTNDQWDAVIEILKARELIPFLDIAYQGFGAGMEEDAYAIRAIASAGLPALVSNSFSKIFSLYGERVGGLSVMCEDAEAAGRVLGQLKATVRRNYSSPPNFGAQVVAAVLNDEALKASWLAEVEEMRTRILAMRQELVKVLSTEMPERNFDYLLNQRGMFSYTGLSAAQVDRLREEFGVYLIASGRMCVAGLNTANVQRVAKAFAAVM
[1]
  total protein half-life in vivo: 4.07 ± 1.2 h
[2]
  total protein half-life in vivo: 2.43 ± 0.047 h
[6]
  total protein half-life in vivo: 2.54 ± 0.061 h
[7]
  total protein half-life in vivo: 3.01 ± 0.049 h
[3]
  total protein half-life in vivo: 2.676 ± 0.003 h
[8]
  total protein half-life in vivo: 3.06 ± 0.56 h
[9]
  total protein half-life in vivo: 4.92 ± 0.29 h
[10]
  total protein half-life in vivo: 7.47 ± 0.87 h
[4]
  total protein half-life in vivo: 2.62 ± 0.058 h
[11]
  total protein half-life in vivo: 3.66 ± 0.17 h
[12]
  total protein half-life in vivo: 5.28 ± 0.29 h
[5]
  total protein half-life in vivo: 9.773 ± 0.058 h

## MFLIITRDTMFFTAMKNILSKGNVVHIQNEEEIDVMLHQNAFVIIDTLMNNVFHSNFLTQIERLKPVHVIIFSPFNIKRCLGKVPVTFVPRTITIIDFVALINGSYCSVPEAAVSLSRKQHQVLSCIANQMTTEDILEKLKISLKTFYCHKHNIMMILNLKRINELVRHQHIDYLV
[1]
  total protein half-life in vivo: 3.86 ± 0.062 h
[2]
  total protein half-life in vivo: 3.81 h
[6]
  total protein half-life in vivo: 3.24 ± 0.28 h
[7]
  total protein half-life in vivo: 3.74 ± 0.092 h
[3]
  total protein half-life in vivo: 3.036 ± 0.0077 h
[4]
  total protein half-life in vivo: 2.94 ± 0.13 h
[11]
  total protein half-life in vivo: 8.12 h
[5]
  total protein half-life in vivo: 4.78 h

## MTLRTENLTVSYGTDKVLNDVSLSLPTGKITALIGPNGCGKSTLLNCFSRLLMPQSGTVFLGDNPINMLSSRQLARRLSLLPQHHLTPEGITVQELVSYGRNPWLSLWGRLSAEDNARVNVAMNQTRINHLAVRRLTELSGGQRQRAFLAMVLAQNTPVVLLDEPTTYLDINHQVDLMRLMGELRTQGKTVVAVLHDLNQASRYCDQLVVMANGHVMAQGTPEEVMTPGLLRTVFSVEAEIHPEPVSGRPMCLMR
[1]
  total protein half-life in vivo: 5.53 ± 0.17 h
[5]
  total protein half-life in vivo: 3.42 h

## MPIHDKSPRPQEFAAVDLGSNSFHMVIARVVDGAMQIIGRLKQRVHLADGLGPDNMLSEEAMTRGLNCLSLFAERLQGFSPASVCIVGTHTLRQALNATDFLKRAEKVIPYPIEIISGNEEARLIFMGVEHTQPEKGRKLVIDIGGGSTELVIGENFEPILVESRRMGCVSFAQLYFPGGVINKENFQRARMAAAQKLETLTWQFRIQGWNVAMGASGTIKAAHEVLMEMGEKDGIITPERLEKLVKEVLRHRNFASLSLPGLSEERKTVFVPGLAILCGVFDALAIRELRLSDGALREGVLYEMEGRFRHQDVRSRTASSLANQYHIDSEQARRVLDTTMQMYEQWREQQPKLAHPQLEALLRWAAMLHEVGLNINHSGLHRHSAYILQNSDLPGFNQEQQLMMATLVRYHRKAIKLDDLPRFTLFKKKQFLPLIQLLRLGVLLNNQRQATTTPPTLTLITDDSHWTLRFPHDWFSQNALVLLDLEKEQEYWEGVAGWRLKIEEESTPEIAA [P0AFL6]
[1]
  total protein half-life in vivo: 5.76 ± 0.2 h
[2]
  total protein half-life in vivo: 5.22 ± 0.12 h
[6]
  total protein half-life in vivo: 3.78 ± 0.22 h
[7]
  total protein half-life in vivo: 3.95 ± 0.21 h
[3]
  total protein half-life in vivo: 3.68 ± 0.057 h
[8]
  total protein half-life in vivo: 2.45 ± 0.086 h
[9]
  total protein half-life in vivo: 4.69 ± 0.06 h
[10]
  total protein half-life in vivo: 6.58 ± 0.48 h
[4]
  total protein half-life in vivo: 3.83 ± 0.3 h
[11]
  total protein half-life in vivo: 5.86 ± 0.01 h
[12]
  total protein half-life in vivo: 3.96 ± 0.56 h
[5]
  total protein half-life in vivo: 6.77 ± 0.37 h

## MPVLHNRISNDALKAKMLAESEPRTTISFYKYFHIADPKATRDALYQLFTALNVFGRVYLAHEGINAQISVPASNVETFRAQLYAFDPALEGLRLNIALDDDGKSFWVLRMKVRDRIVADGIDDPHFDASNVGEYLQAAEVNAMLDDPDALFIDMRNHYEYEVGHFENALEIPADTFREQLPKAVEMMQAHKDKKIVMYCTGGIRCEKASAWMKHNGFNKVWHIEGGIIEYARKAREQGLPVRFIGKNFVFDERMGERISDEIIAHCHQCGAPCDSHTNCKNDGCHLLFIQCPVCAEKYKGCCSEICCEESALPPEEQRRRRAGRENGNKIFNKSRGRLNTTLCIPDPTE
[1]
  total protein half-life in vivo: 5.01 ± 0.67 h
[2]
  total protein half-life in vivo: 0.746 ± 0.024 h
[6]
  total protein half-life in vivo: 0.396 h
[7]
  total protein half-life in vivo: 0.483 h
[3]
  total protein half-life in vivo: 0.56 h
[8]
  total protein half-life in vivo: 0.343 ± 0.0081 h
[9]
  total protein half-life in vivo: 0.308 h
[10]
  total protein half-life in vivo: 0.65 h
[11]
  total protein half-life in vivo: 0.808 h
[12]
  total protein half-life in vivo: 0.402 ± 0.34 h
[5]
  total protein half-life in vivo: 1.16 ± 1.1 h

## MIKIGVIADDFTGATDIASFLVENGLPTVQINGVPTGKMPEAIDALVISLKTRSCPVVEATQQSLAALSWLQQQGCKQIYFKYCSTFDSTAKGNIGPVTDALMDALDTPFTVFSPALPVNGRTVYQGYLFVMNQLLAESGMRHHPVNPMTDSYLPRLVEAQSTGRCGVVSAHVFEQGVDAVRQELARLQQEGYRYAVLDALTEHHLEIQGEALRDAPLVTGGSGLAIGLARQWAQENGNQARKAGRPLAGRGVVLSGSCSQMTNRQVAHYRQIAPAREVDVARCLSIETLAAYAHELAEWVLGQESVLAPLVFATASTDALAAIQQQYGAQKASQAVETLFSQLAARLAAEGVTRFIVAGGETSGVVTQSLGIKGFHIGPTISPACRG
[1]
  total protein half-life in vivo: 5.65 ± 0.84 h
[5]
  total protein half-life in vivo: 11.4 h

## MNNNLQRDAIAAAIDVLNEERVIAYPTEAVFGVGCDPDSETAVMRLLELKQRPVDKGLILIAANYEQLKPYIDDTMLTDVQRETIFSRWPGPVTFVFPAPATTPRWLTGRFDSLAVRVTDHPLVVALCQAYGKPLVSTSANLSGLPPCRTVDEVRAQFGAAFPVVPGETGGRLNPSEIRDALTGELFRQG
[1]
  total protein half-life in vivo: 4.72 ± 0.33 h
[2]
  total protein half-life in vivo: 4.4 ± 0.6 h
[6]
  total protein half-life in vivo: 4.12 ± 0.43 h
[7]
  total protein half-life in vivo: 5.29 ± 0.27 h
[3]
  total protein half-life in vivo: 3.89 ± 0.05 h
[9]
  total protein half-life in vivo: 5.61 ± 0.47 h
[10]
  total protein half-life in vivo: 9.17 ± 0.24 h
[4]
  total protein half-life in vivo: 4.08 ± 0.38 h
[11]
  total protein half-life in vivo: 5.63 ± 1.6 h
[12]
  total protein half-life in vivo: 5.25 ± 0.24 h
[5]
  total protein half-life in vivo: 11 ± 1.6 h
